Source: article PMC10007213

How the values were obtained:
[1] = target: Dendrorhynchus zhejiangensis ferritin (DzFer) (Dendrorhynchus zhejiangensis); experiment: crystal structure; DzFer crystals (0.2 M ammonium sulfate, 0.1 M sodium acetate pH 4.6, 30% PEG MME 2000) soaked 1 min with 100 mM AgNO3; space group I432; 1.90 Å
[2] = target: Dendrorhynchus zhejiangensis ferritin (DzFer) (Dendrorhynchus zhejiangensis); experiment: native gel or EMSA; Native-PAGE, 6% gel, 4 °C, Tris-glycine pH 8.3; purified tag-free DzFer, also after incubation and dialysis at pH 4, 6, 8, 10, 12, and as Ag^+-DzFer and Cu^2+-DzFer; subunits to 24-mer cage
[3] = target: Dendrorhynchus zhejiangensis ferritin (DzFer) (Dendrorhynchus zhejiangensis); experiment: crystal structure; Cu^2+-DzFer crystallised (0.2 M sodium citrate, 0.1 M Tris pH 8.5, 30% PEG 400); space group I432; 2.26 Å

Measured: stoichiometry N

Dendrorhynchus zhejiangensis ferritin (DzFer) (natural protein)
24: [1] | [2] | [3]
